Values belong to the molecule of their own block, whether it stands above or below them.
Biological target: T1, 人CD20 (human) (UniProt P11836)
T1 sequence (looked up): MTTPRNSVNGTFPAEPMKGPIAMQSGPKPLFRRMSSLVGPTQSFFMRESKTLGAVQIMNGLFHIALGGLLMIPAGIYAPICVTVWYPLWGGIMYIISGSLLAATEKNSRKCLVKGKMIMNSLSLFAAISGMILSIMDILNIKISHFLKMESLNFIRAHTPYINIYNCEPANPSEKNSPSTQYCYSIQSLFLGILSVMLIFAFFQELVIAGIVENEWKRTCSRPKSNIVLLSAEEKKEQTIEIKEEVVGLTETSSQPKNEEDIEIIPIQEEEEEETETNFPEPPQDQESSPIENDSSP
Experiment: flow cytometry titration on lysed human blood cells, dilutions 1:100 to 1:96000 of 1 mg/mL antibody, goat anti-mouse IgG-PE detection

亲和力(kd): 195 (1mg/mL)
Molecule: 商品化鼠抗人CD20[2H7]抗体 (Biolegend) (antibody)

亲和力(kd): 190 (1mg/mL)
B1: 鼠抗人CD20[ZXCloneHCD20-07] (antibody, V domains shown)
VH: QVQLQQPGAELVKPGASVKMSCKASGYTFTSYNIHWVKQTPGQGLEWIGAIYPGNGDTSHNQKFKGKATLTADRSSSTAYMQFSSLTSEDSAVYYCARSRRYDGDWSFDVWGAGTTVTVSS
VL: QIVLTQSPAIMSASPGEKVTMTCSASSFITYMHWFQQKSGTSPKRWIYDTSKLASGVPARFSGSGSGTSYSLTISSMEAEDAATYYCQQWNSNPPTFGGGTKLEIKR
